B1: GTGCAC_negctrl_site444 (dsDNA)
DNA 1: TTTTTCACATCTATAAATCATCTAATCAATATTTTT
DNA 2: AAAAATATTGATTAGATGATTTATAGATGTGAAAAA
B2: GTGCAC_site10047 (dsDNA)
DNA 1: TATAATTTTTACTGGGTGCACTCGATATTTTAAATA
DNA 2: TATTTAAAATATCGAGTGCACCCAGTAAAAATTATA
B3: GTGCAC_negctrl_site477 (dsDNA)
DNA 1: AAAAAAAATTTTCTTCTGTTGTATTTTTTATACGTT
DNA 2: AACGTATAAAAAATACAACAGAAGAAAATTTTTTTT
B4: GTGCAC_negctrl_site299 (dsDNA)
DNA 1: AGAGAAAGAAGGGAGAAAAAATAAAATAAAATAAAA
DNA 2: TTTTATTTTATTTTATTTTTTCTCCCTTCTTTCTCT
B5: GTGCAC_negctrl_site12 (dsDNA)
DNA 1: AATAAAAAAATAAAAAAAAAAAAAAATAAAAAAAAA
DNA 2: TTTTTTTTTATTTTTTTTTTTTTTTATTTTTTTATT
B6: GTGCAC_negctrl_site184 (dsDNA)
DNA 1: TATTCTATATTTCTATTTAGAAAACATCCCAGTGTG
DNA 2: CACACTGGGATGTTTTCTAAATAGAAATATAGAATA
B7: GTGCAC_negctrl_site581 (dsDNA)
DNA 1: AAAAAAAAATATATATAAAATTAAAAAATGTAATAT
DNA 2: ATATTACATTTTTTAATTTTATATATATTTTTTTTT
B8: GTGCAC_site10453 (dsDNA)
DNA 1: TATAAGTAGATAAGGGTGCACAATATAAATATATAG
DNA 2: CTATATATTTATATTGTGCACCCTTATCTACTTATA
B9: GTGCAC_site10477 (dsDNA)
DNA 1: AAATATTTCTGCAAGGTGCACTTTATAAATCTTTGA
DNA 2: TCAAAGATTTATAAAGTGCACCTTGCAGAAATATTT
B10: GTGCAC_negctrl_site686 (dsDNA)
DNA 1: TCTTATATGATATTTATTTATTTATTTATTTATTCA
DNA 2: TGAATAAATAAATAAATAAATAAATATCATATAAGA
B11: GTGCAC_negctrl_site320 (dsDNA)
DNA 1: TTTTCTAAAATATTCATAATAAATCAAAAAAAAAAA
DNA 2: TTTTTTTTTTTGATTTATTATGAATATTTTAGAAAA
B12: GTGCAC_negctrl_site663 (dsDNA)
DNA 1: ATAAAAATAAATAAATTATATAAATGTAATATGAAA
DNA 2: TTTCATATTACATTTATATAATTTATTTATTTTTAT
B13: GTGCAC_negctrl_site96 (dsDNA)
DNA 1: ATTTTTTTATAAAATTTTTATATAATTTATTATAAA
DNA 2: TTTATAATAAATTATATAAAAATTTTATAAAAAAAT
B14: GTGCAC_negctrl_site359 (dsDNA)
DNA 1: ATATAAAAAAGGGAGGTAAATGAATGTGAAACCCAA
DNA 2: TTGGGTTTCACATTCATTTACCTCCCTTTTTTATAT
B15: GTGCAC_negctrl_site315 (dsDNA)
DNA 1: ATATACTATTAACCACATATGTGTGTTAATTTATAT
DNA 2: ATATAAATTAACACACATATGTGGTTAATAGTATAT
B16: GTGCAC_negctrl_site46 (dsDNA)
DNA 1: TTGTAGGAATTTATTTTGACTGATAATTAATACGTT
DNA 2: AACGTATTAATTATCAGTCAAAATAAATTCCTACAA
B17: GTGCAC_site10530 (dsDNA)
DNA 1: ATTAATAATCGAAAGGTGCACTTTGATTTGATAACA
DNA 2: TGTTATCAAATCAAAGTGCACCTTTCGATTATTAAT
B18: GTGCAC_negctrl_site130 (dsDNA)
DNA 1: TTGTATTAATAATTTTTTATATTATAGTTTATAATA
DNA 2: TATTATAAACTATAATATAAAAAATTATTAATACAA
B19: GTGCAC_negctrl_site11 (dsDNA)
DNA 1: TCTTATAACAAAAAAAAATAAAAAATAAAACTATAT
DNA 2: ATATAGTTTTATTTTTTATTTTTTTTTGTTATAAGA
B20: GTGCAC_negctrl_site693 (dsDNA)
DNA 1: TGGACCAAACGACAAAAAAAAAGCAGAAAACAAAAA
DNA 2: TTTTTGTTTTCTGCTTTTTTTTTGTCGTTTGGTCCA
B21: GTGCAC_negctrl_site445 (dsDNA)
DNA 1: TATGGTGTAATTTAGTGTATTATATTATTTTGGTTG
DNA 2: CAACCAAAATAATATAATACACTAAATTACACCATA
B22: GTGCAC_negctrl_site250 (dsDNA)
DNA 1: TTTTTTTTTTTATATACTGGAAATATATTTAATTTA
DNA 2: TAAATTAAATATATTTCCAGTATATAAAAAAAAAAA
B23: GTGCAC_negctrl_site133 (dsDNA)
DNA 1: TCTTTTACAAAAGCTATAACATTCACCACATTATAA
DNA 2: TTATAATGTGGTGAATGTTATAGCTTTTGTAAAAGA
B24: GTGCAC_negctrl_site64 (dsDNA)
DNA 1: TGCAAATTTAACAAAAAAAAAAAAAAAAAAAAAAAA
DNA 2: TTTTTTTTTTTTTTTTTTTTTTTTGTTAAATTTGCA
B25: GTGCAC_negctrl_site404 (dsDNA)
DNA 1: AAAAAAAAAAAGAAGGAAACATTTGACCAAAAATAT
DNA 2: ATATTTTTGGTCAAATGTTTCCTTCTTTTTTTTTTT
B26: GTGCAC_negctrl_site313 (dsDNA)
DNA 1: GATATAATTATATTATGGTGTTTTTGATAGATATTT
DNA 2: AAATATCTATCAAAAACACCATAATATAATTATATC
B27: GTGCAC_negctrl_site392 (dsDNA)
DNA 1: TTTATTATTATATTATTTTAATTTTTCTTTAGTACA
DNA 2: TGTACTAAAGAAAAATTAAAATAATATAATAATAAA
B28: GTGCAC_site9855 (dsDNA)
DNA 1: TTTATTTTCCAAAGGGTGCACATAGTTAAAACGATA
DNA 2: TATCGTTTTAACTATGTGCACCCTTTGGAAAATAAA
B29: GTGCAC_negctrl_site95 (dsDNA)
DNA 1: GCAGTCAAAAAGGAAAATATAAAAAAAGTATATGTG
DNA 2: CACATATACTTTTTTTATATTTTCCTTTTTGACTGC
B30: GTGCAC_negctrl_site265 (dsDNA)
DNA 1: TATTTTTTTTCTTTATTTATAACGCTCAATATATTC
DNA 2: GAATATATTGAGCGTTATAAATAAAGAAAAAAAATA
B31: GTGCAC_negctrl_site324 (dsDNA)
DNA 1: ATATGTAAAACTTCAAAAAAATATATTTTATGACGA
DNA 2: TCGTCATAAAATATATTTTTTTGAAGTTTTACATAT
B32: GTGCAC_negctrl_site537 (dsDNA)
DNA 1: TGGTAACAGCATAGAAAATGGACAAACGAAATATAA
DNA 2: TTATATTTCGTTTGTCCATTTTCTATGCTGTTACCA
B33: GTGCAC_negctrl_site248 (dsDNA)
DNA 1: ACTACGTGTCAAAAATATTAATTACAAATGAATAAA
DNA 2: TTTATTCATTTGTAATTAATATTTTTGACACGTAGT
B34: GTGCAC_negctrl_site708 (dsDNA)
DNA 1: TTCTATTCAAATGCAAAATTATTAAATAAAAAATAA
DNA 2: TTATTTTTTATTTAATAATTTTGCATTTGAATAGAA
B35: GTGCAC_negctrl_site618 (dsDNA)
DNA 1: AAAAAAATTACATATCCATTTTAACATAATAAATAG
DNA 2: CTATTTATTATGTTAAAATGGATATGTAATTTTTTT
B36: GTGCAC_negctrl_site585 (dsDNA)
DNA 1: TTTTGATAGAAGTGTTCTAGGAATTCAACTGTAATA
DNA 2: TATTACAGTTGAATTCCTAGAACACTTCTATCAAAA
B37: GTGCAC_negctrl_site407 (dsDNA)
DNA 1: AATGGAAAAAAAAAAATAAATACAAATAAATACAAA
DNA 2: TTTGTATTTATTTGTATTTATTTTTTTTTTTCCATT
B38: GTGCAC_negctrl_site515 (dsDNA)
DNA 1: GATATGATGAGATTGATATTCATAAGAGGATTAATG
DNA 2: CATTAATCCTCTTATGAATATCAATCTCATCATATC
B39: GTGCAC_site10010 (dsDNA)
DNA 1: AACCATTGGGAAAGGGTGCACATATATATATATATA
DNA 2: TATATATATATATATGTGCACCCTTTCCCAATGGTT
B40: GTGCAC_negctrl_site288 (dsDNA)
DNA 1: TATTATTCATAATTTATCTTTTAAATTAAATCACAA
DNA 2: TTGTGATTTAATTTAAAAGATAAATTATGAATAATA
B41: GTGCAC_negctrl_site51 (dsDNA)
DNA 1: ATAAAAAATTTAAGTATTTTTTACAAACCTATAAAT
DNA 2: ATTTATAGGTTTGTAAAAAATACTTAAATTTTTTAT

We go through 41 molecules from article PMC11417369, “DNA sequence and chromatin differentiate sequence-specific transcription factor binding in the human malaria parasite Plasmodium falciparum”.

This data set addresses T1, SIP2 D1 (Plasmodium falciparum, UniProt C6KSN9 177-235).
T1 sequence: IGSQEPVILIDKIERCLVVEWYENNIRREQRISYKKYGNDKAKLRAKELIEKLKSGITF
In words: gcPBM; about 25 ug protein; PBS, 1% milk, 0.2 mg/ml BSA, salmon testes DNA, 0.03% Triton X-100. The following applies: tags: N-terminal GST (pGEX-4T-1), kept; label: surface-attached array probe.
Regarding B1, the binding signal is 6.76 ln median PBM intensity, better of two orientations.
On to B2, for which the binding signal is 12.2 ln median PBM intensity, better of two orientations.
The result for B3 reads 6.77 ln median PBM intensity, better of two orientations; that for B4, 6.83 ln median PBM intensity, better of two orientations; that for B5, 6.76 ln median PBM intensity, better of two orientations.
The same measure for B6: 6.86 ln median PBM intensity, better of two orientations; for B7: 6.85 ln median PBM intensity, better of two orientations.
For the molecule B8, the binding signal was 12.1 ln median PBM intensity, better of two orientations.
The same measure for B9: 12.1 ln median PBM intensity, better of two orientations; for B10: 6.77 ln median PBM intensity, better of two orientations.
The same measure for B11: 6.79 ln median PBM intensity, better of two orientations; for B12: 6.92 ln median PBM intensity, better of two orientations; for B13: 6.82 ln median PBM intensity, better of two orientations.
With B14, the binding signal is 6.92 ln median PBM intensity, better of two orientations.
The same measure for B15: 6.87 ln median PBM intensity, better of two orientations.
The same measure for B16: 6.8 ln median PBM intensity, better of two orientations.
In the case of B17, the binding signal is 12.2 ln median PBM intensity, better of two orientations.
The same measure for B18: 6.82 ln median PBM intensity, better of two orientations; for B19: 6.87 ln median PBM intensity, better of two orientations.
Turning to B20, the binding signal was 6.81 ln median PBM intensity, better of two orientations.
Regarding B21, the binding signal is 6.86 ln median PBM intensity, better of two orientations.
The result for B22 reads 6.78 ln median PBM intensity, better of two orientations.
The same measure for B23: 6.79 ln median PBM intensity, better of two orientations; for B24: 6.92 ln median PBM intensity, better of two orientations.
Take B25: the binding signal is 6.91 ln median PBM intensity, better of two orientations.
The same measure for B26: 6.92 ln median PBM intensity, better of two orientations; for B27: 6.89 ln median PBM intensity, better of two orientations.
The same measure for B28: 11.9 ln median PBM intensity, better of two orientations; for B29: 6.87 ln median PBM intensity, better of two orientations; for B30: 6.85 ln median PBM intensity, better of two orientations.
On to B31, for which the binding signal is 6.82 ln median PBM intensity, better of two orientations.
The same measure for B32: 6.79 ln median PBM intensity, better of two orientations.
The result for B33 reads 6.92 ln median PBM intensity, better of two orientations; that for B34, 6.9 ln median PBM intensity, better of two orientations.
The result for B35 reads 6.84 ln median PBM intensity, better of two orientations; that for B36, 6.81 ln median PBM intensity, better of two orientations.
For the molecule B37, the binding signal was 6.81 ln median PBM intensity, better of two orientations.
The result for B38 reads 6.75 ln median PBM intensity, better of two orientations; that for B39, 12.2 ln median PBM intensity, better of two orientations.
The result for B40 reads 6.81 ln median PBM intensity, better of two orientations; that for B41, 6.78 ln median PBM intensity, better of two orientations.
